We go through one molecule from publication PMC9226498, “Structural basis for interaction between CLAMP and MSL2 proteins involved in the specific recruitment of the dosage compensation complex in Drosophila” (Nucleic Acids Research, 2022).

The target of the experiment is T1, CLAMP^40–153 (Drosophila melanogaster, UniProt Q9V9N4 40-153).
T1 construct: Tags and their cleavage are told only in the Supplementary Information; source: E. coli BL21 (DE3), purified (IMAC, anion-exchange chromatography)
T1 sequence (looked up): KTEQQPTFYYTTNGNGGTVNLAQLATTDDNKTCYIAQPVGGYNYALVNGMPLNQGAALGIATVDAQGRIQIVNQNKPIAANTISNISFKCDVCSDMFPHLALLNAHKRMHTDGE
The experiment in a line: NMR titration; stable isotope-labeled MSL2 618–655 titrated with unlabeled CLAMP 40–153 (or CLAMP 41–153 L139A/K146E); chemical shift perturbation, fast exchange; 25°C. The conditions noted are these: both partners purified.

Usually Kd stands for the constant that tells how readily two partners part at equilibrium.

B1: MSL2^618–655 (domain or fragment, Drosophila melanogaster, UniProt P50534 618-655, looked up)
chain: ISLVPLNNLQQSQHPLVLVQNEKGEYQGFNIFQGSKPL
notes: Unlabelled or 13C,15N-labelled for NMR; Tags and their cleavage are told only in the Supplementary Information; also called MSL2 peptide; source: E. coli BL21 (DE3), purified (IMAC, anion-exchange chromatography)
On to B1, for which the Kd turned out to be 200 ± 100 µM.
